These results are taken from the supplement of paper PMC5998384.

Data set [1] deals with HeLa Kyoto. Description: solubility in G1/S (NP-40 vs SDS abundance) (log2 ratio); higher = more soluble. As to conditions: cell cycle stage: G1/S.
The subject of data set [2] is HeLa Kyoto. Put plainly: melting temperature (median over replicates), in situ; higher = more thermally stable.
The subject of data set [3] is HeLa Kyoto. Description: solubility change mitosis vs G1/S (difference of NP-40 vs SDS log2 ratios) (log2 ratio difference); higher = more soluble in mitosis.
Data set [4] concerns HeLa Kyoto. Put plainly: thermal stability score vs G1/S (z-score of summed log2 fold changes over temperatures); higher = more thermally stable than in G1/S.
[5] abbreviates: cell cycle stage: early G1 (4.5 h after nocodazole release).
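Throughout, for melting temperature (median over replicates), in situ: HeLa Kyoto cells synchronized by double thymidine or nocodazole block, proteins quantified by TMT10plex mass spectrometry, three independent biological replicates.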
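Throughout, for solubility change mitosis vs G1/S (difference of NP-40 vs SDS log2 ratios): synchronized HeLa Kyoto cells (double thymidine block for G1/S, nocodazole release for mitosis), protein amounts in NP-40 versus SDS lysates quantified by mass spectrometry, three biological replicates.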
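Throughout, for solubility in G1/S (NP-40 vs SDS abundance): HeLa Kyoto cells arrested at G1/S by double thymidine block, proteins quantified by TMT10plex mass spectrometry in mild NP-40 versus SDS extracts, three biological replicates.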
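Throughout, for thermal stability score vs G1/S (z-score of summed log2 fold changes over temperatures): synchronized HeLa Kyoto cells, proteins quantified by TMT10plex mass spectrometry, three biological replicates, mitosis taken 0.5 h after nocodazole release, G1/S directly after double thymidine block.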

For the sequence “MANEEDDPVVQEIDVYLAKSLAEKLYLFQYPVRPASMTYDDIPHLSAKIKPKQQKVELEMAIDTLNPNYCRSKGEQIALNVDGACADETSTYSSKLMDKQTFCSSQTTSNTSRYAAALYRQGELHLTPLHGILQLRPSFSYLDKADAKHREREAANEAGDSSQDEAEDDVKQITVRFSRPESEQARQRRVQSYEFLQKKHAEEPWVHLHYYGLRDSRSEHERQYLLCPGSSGVENTELVKSPSEYLMMLMPPSQEEEKDKPVAPSNVLSMAQLRTLPLADQIKILMKNVKVMPFANLMSLLGPSIDSVAVLRGIQKVAMLVQGNWVVKSDILYPKDSSSPHSGVPAEVLCRGRDFVMWKFTQSRWVVRKEVATVTKLCAEDVKDFLEHMAVVRINKGWEFILPYDGEFIKKHPDVVQRQHMLWTGIQAKLEKVYNLVKETMPKKPDAQSGPAGLVCGDQRIQVAKTKAQQNHALLERELQRRKEQLRVPAVPPGVRIKEEPVSEEGEEDEEQEAEEEPMDTSPSGLHSKLANGLPLGRAAGTDSFNGHPPQGCASTPVARELKAFVEATFQRQFVLTLSELKRLFNLHLASLPPGHTLFSGISDRMLQDTVLAAGCKQILVPFPPQTAASPDEQKVFALWESGDMSDQHRQVLLEIFSKNYRVRRNMIQSRLTQECGEDLSKQEVDKVLKDCCVSYGGMWYLKGTVQS [POLR3E]”, the “solubility in G1/S (log2)” value with HeLa Kyoto [1] was 0.128. Further, the melting temperature with HeLa Kyoto [2] (cell cycle stage: G1/S) amounted to 49.8 °C; in the data set on HeLa Kyoto [2] (cell cycle stage: mitosis), 49.9 °C. Moreover, the “solubility change mitosis (log2)” value in the data set with HeLa Kyoto [3] was -0.0491. In addition, the thermal stability score stood at 0.337 in the data set on HeLa Kyoto [4] (setting [5]) and 0.588 in the data set on HeLa Kyoto [4] (cell cycle stage: mitosis).

Take “MANSGCKDVTGPDEESFLYFAYGSNLLTERIHLRNPSAAFFCVARLQDFKLDFGNSQGKTSQTWHGGIATIFQSPGDEVWGVVWKMNKSNLNSLDEQEGVKSGMYVVIEVKVATQEGKEITCRSYLMTNYESAPPSPQYKKIICMGAKENGLPLEYQEKLKAIEPNDYTGKVSEEIEDIIKKGETQTL [GGCT]”: the “solubility in G1/S (log2)” value with HeLa Kyoto [1] came out at 0.302. For the same sequence, the melting temperature worked out at 55.4 °C with HeLa Kyoto [2] (cell cycle stage: G1/S) and 55.3 °C with HeLa Kyoto [2] (cell cycle stage: mitosis). For the same sequence, the “solubility change mitosis (log2)” value with HeLa Kyoto [3] was -0.0992. Besides, the thermal stability score in the data set with HeLa Kyoto [4] (setting [5]) was -0.47; in the data set on HeLa Kyoto [4] (cell cycle stage: mitosis), -3.22.

As to “MANVGLQFQASAGDSDPQSRPLLLLGQLHHLHRVPWSHVRGKLQPRVTEELWQAALSTLNPNPTDSCPLYLNYATVAALPCRVSRHNSPSAAHFITRLVRTCLPPGAHRCIVMVCEQPEVFASACALARAFPLFTHRSGASRRLEKKTVTVEFFLVGQDNGPVEVSTLQCLANATDGVRLAARIVDTPCNEMNTDTFLEEINKVGKELGIIPTIIRDEELKTRGFGGIYGVGKAALHPPALAVLSHTPDGATQTIAWVGKGIVYDTGGLSIKGKTTMPGMKRDCGGAAAVLGAFRAAIKQGFKDNLHAVFCLAENSVGPNATRPDDIHLLYSGKTVEINNTDAEGRLVLADGVSYACKDLGADIILDMATLTGAQGIATGKYHAAVLTNSAEWEAACVKAGRKCGDLVHPLVYCPELHFSEFTSAVADMKNSVADRDNSPSSCAGLFIASHIGFDWPGVWVHLDIAAPVHAGERATGFGVALLLALFGRASEDPLLNLVSPLGCEVDVEEGDLGRDSKRRRLV [NPEPL1]”, the “solubility in G1/S (log2)” value with HeLa Kyoto [1] was determined as 0.106. Also, the melting temperature with HeLa Kyoto [2] (cell cycle stage: G1/S) turned out to be 58.3 °C; in the data set on HeLa Kyoto [2] (cell cycle stage: mitosis), 58.8 °C. For the same sequence, in the data set with HeLa Kyoto [3], the “solubility change mitosis (log2)” value was -0.0373. Moreover, the thermal stability score was -4.2 in the data set on HeLa Kyoto [4] (setting [5]) and -3.53 with HeLa Kyoto [4] (cell cycle stage: mitosis).

As to “MAPGQLALFSVSDKTGLVEFARNLTALGLNLVASGGTAKALRDAGLAVRDVSELTGFPEMLGGRVKTLHPAVHAGILARNIPEDNADMARLDFNLIRVVACNLYPFVKTVASPGVTVEEAVEQIDIGGVTLLRAAAKNHARVTVVCEPEDYVVVSTEMQSSESKDTSLETRRQLALKAFTHTAQYDEAISDYFRKQYSKGVSQMPLRYGMNPHQTPAQLYTLQPKLPITVLNGAPGFINLCDALNAWQLVKELKEALGIPAAASFKHVSPAGAAVGIPLSEDEAKVCMVYDLYKTLTPISAAYARARGADRMSSFGDFVALSDVCDVPTAKIISREVSDGIIAPGYEEEALTILSKKKNGNYCVLQMDQSYKPDENEVRTLFGLHLSQKRNNGVVDKSLFSNVVTKNKDLPESALRDLIVATIAVKYTQSNSVCYAKNGQVIGIGAGQQSRIHCTRLAGDKANYWWLRHHPQVLSMKFKTGVKRAEISNAIDQYVTGTIGEDEDLIKWKALFEEVPELLTEAEKKEWVEKLTEVSISSDAFFPFRDNVDRAKRSGVAYIAAPSGSAADKVVIEACDELGIILAHTNLRLFHH [ATIC]”, the “solubility in G1/S (log2)” value in the data set with HeLa Kyoto [1] is 0.0708. The melting temperature with HeLa Kyoto [2] (cell cycle stage: G1/S) and in the data set with HeLa Kyoto [2] (cell cycle stage: mitosis) was 54.4 °C each time. Also, the “solubility change mitosis (log2)” value in the data set on HeLa Kyoto [3] was -0.093. Further, the thermal stability score was -0.0275 with HeLa Kyoto [4] (setting [5]) and 1.16 in the data set with HeLa Kyoto [4] (cell cycle stage: mitosis).

Regarding “MAPGVARGPTPYWRLRLGGAALLLLLIPVAAAQEPPGAACSQNTNKTCEECLKNVSCLWCNTNKACLDYPVTSVLPPASLCKLSSARWGVCWVNFEALIITMSVVGGTLLLGIAICCCCCCRRKRSRKPDRSEEKAMREREERRIRQEERRAEMKTRHDEIRKKYGLFKEENPYARFENN [PTTG1IP]”, in the data set with HeLa Kyoto [1], the “solubility in G1/S (log2)” value is -0.362. The sequence also came in with a melting temperature with HeLa Kyoto [2] (cell cycle stage: G1/S) of 56.3 °C. Further, in the data set with HeLa Kyoto [3], the “solubility change mitosis (log2)” value was -0.143. Also, the thermal stability score in the data set on HeLa Kyoto [4] (setting [5]) was -5.97; in the data set on HeLa Kyoto [4] (cell cycle stage: mitosis) it was -6.48.

As to “MAPKGSSKQQSEEDLLLQDFSRNLSAKSSALFFGNAFIVSAIPIWLYWRIWHMDLIQSAVLYSVMTLVSTYLVAFAYKNVKFVLKHKVAQKREDAVSKEVTRKLSEADNRKMSRKEKDERILWKKNEVADYEATTFSIFYNNTLFLVVVIVASFFILKNFNPTVNYILSISASSGLIALLSTGSK [SSR3]”, the “solubility in G1/S (log2)” value in the data set on HeLa Kyoto [1] is -0.131. Also, the melting temperature in the data set with HeLa Kyoto [2] (cell cycle stage: G1/S) was 57.8 °C; with HeLa Kyoto [2] (cell cycle stage: mitosis), 57.2 °C. Moreover, in the data set on HeLa Kyoto [3], the “solubility change mitosis (log2)” value was 0.126. Besides, the thermal stability score was 1.59 in the data set with HeLa Kyoto [4] (setting [5]) and -0.0489 in the data set on HeLa Kyoto [4] (cell cycle stage: mitosis).
